Columns and labels:
[1] = molecular target: T1, heparinase I (Pedobacter heparinus, UniProt Q05819); experiment: Effect of lanthanides on heparinase I activity (232 nm assay); type: biochemical, Flavobacterium heparinum; settings: 15 minutes preincubation; 4 mg/mL heparin, 5 mM calcium, pH 6.5
[2] = molecular target: T1, heparinase I; type: binding, Flavobacterium heparinum
[3] = molecular target: T1, heparinase I; type: biochemical, Flavobacterium heparinum; settings: 30 minutes preincubation, 50 μM WRK, pH 7
[4] = Exhaustive digest and HPLC analysis of saccharide products of heparinase II and mutants, heparin substrate; settings: exhaustive digest 18 hours at 30° C.
Procedure: HPLC Analysis of Saccharide Products of Heparinase II Activity. Heparin or heparan sulfate was degraded by heparinase II or one of the recombinant heparinases for 18 h at 30° C. The reaction was stopped by boiling and the samples were injected onto a POROS Q/M (4.6×100 mm) anion-exchange column connected to a BIOCAD system (PerSeptive Biosystems, Framingham, Mass.) (Godavarti, R., and Sasisekharan, R (1996c) Biochem. Biophys. Res. Comm. 229, 770-777). A salt gradient of 0-2 M NaCI in 10 mM Tris pH 7.0 was run and products were monitored at 232 nm.
Exhaustive digests of both 4 mg/ml heparin and 2 mg/ml heparan sulfate were completed and the resulting products analyzed with a Perfusion Chromatography system in a fashion similar to the analysis completed for heparinase I (Godavarti, R., and Sasisekharan, R (1996c) Biochem. Biophys. Res. Comm. 229, 770-777). Running buffer used as 10 mM Tris, pH 7.0 and the salt gradient was 0-2 M NaCl over the course of ten minutes.
After purification, each of these four wild-type and mutant enzymes was characterized via exhaustive (i.e., 18 hours at 30° C.) substrate digests to determine product profiles. Perfusion chromatography profiles of the desaccharide products of the three cysteine mutants and the r-heparinase II were analyzed using either heparin and heparan sulfate as the substrate.

[5] = absence of calcium; shown previously; cited from earlier work
[6] = Heparinase I activity as a function of calcium concentration (K0.5, calcium dependence); type: biochemical
Summary of the method: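 Heparinase I mutant activity was measured by UV absorbance at 232 nm in 100 mM MOPS, pH 7.0, with calcium varied from 0 to 10 mM. Activity is given as IU (μmol product/min) using ε=−3800 M^−1cm^−1.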

[7] = Processivity of heparinase I on heparin; type: biochemical

## [Tb+3] [terbium]
[1]
  IC50: 39 µM
[2]
  terbium equivalents at which fluorescence intensity stops increasing: 10 equivalents

## [Lu+3] [Lu^3+, lutetium]
[1]
  IC50: 212 µM

## [Ca+2] [calcium]
[2]
  calcium concentration sufficient to compete with terbium for binding to heparinase I: 2 mM
[3]
  K0.5 of protection from WRK-mediated inactivation: 980 µM

B1: C189A: heparinase II cysteine to alanine mutant at position 189 (protein, UniProt C6XZB6 26-772, looked up, variant C189A)
Heparin and heparin-sulfate …: QTKADVVWKDVDGVSMPIPPKTHPRLYLREQQVPDLKNRMNDPKLKKVWADMIKMQEDWKPADIPEVKDFRFYFNQKGLTVRVELMALNYLMTKDPKVGREAITSIIDTLETATFKPAGDISRGIGLFMVTGAIVYDWCYDQLKPEEKTRFVKAFVRLAKMLEAGYPPVKDKSIVGHASEWMIMRDLLSVGIAIYDEFPEMYNLAAGRFFKEHLVARNWFYPSHNYHQGMSYLNVRFTNDLFALWILDRMGAGNVFNPGQQFILYDAIYKRRPDGQILAGGDVDYSRKKPKYYTMPALLAGSYYKDEYLNYEFLKDPNVEPHCKLFEFLWRDTQLGSRKPDDLPLSRYSGSPFGWMIARTGWGPESVIAEMKVNEYSFLNHQHQDAGAFQIYYKGPLAIDAGSYTGSSGGYNSPHNKNFFKRTIAHNSLLIYDPKETFSSSGYGGSDHTDFAANDGGQRLPGKGWIAPRDLKEMLAGDFRTGKILAQGFGPDNQTPDYTYLKGDITAAYSAKVKEVKRSFLFLNLKDAKVPAAMIVFDKVVASNPDFKKFWLLHSIEQPEIKGNQITIKRTKNGDSGMLVNTALLPDAANSNITSIGGKGKDFWVFGTNYTNDPKPGTDEALERGEWRVEITPKKAAAEDYYLNVIQIADNTQQKLHEVKRIDGDKVVGVQLADRIVTFSKTSETVDRPFGFSVVGKGTFKFVMTDLLPGTWQVLKDGKILYPALSAKGDDGALYFEGTEGTYRFLR
[4]
  degradation product profile, heparin substrate: closely matched those of both r-heparinase II and native heparinase II

B2: C348A: heparinase II cysteine to alanine mutant at position 348 (protein, UniProt C6XZB6 26-772, looked up, variant C348A)
Heparin and heparin-sulfate …: QTKADVVWKDVDGVSMPIPPKTHPRLYLREQQVPDLKNRMNDPKLKKVWADMIKMQEDWKPADIPEVKDFRFYFNQKGLTVRVELMALNYLMTKDPKVGREAITSIIDTLETATFKPAGDISRGIGLFMVTGAIVYDWCYDQLKPEEKTRFVKAFVRLAKMLECGYPPVKDKSIVGHASEWMIMRDLLSVGIAIYDEFPEMYNLAAGRFFKEHLVARNWFYPSHNYHQGMSYLNVRFTNDLFALWILDRMGAGNVFNPGQQFILYDAIYKRRPDGQILAGGDVDYSRKKPKYYTMPALLAGSYYKDEYLNYEFLKDPNVEPHAKLFEFLWRDTQLGSRKPDDLPLSRYSGSPFGWMIARTGWGPESVIAEMKVNEYSFLNHQHQDAGAFQIYYKGPLAIDAGSYTGSSGGYNSPHNKNFFKRTIAHNSLLIYDPKETFSSSGYGGSDHTDFAANDGGQRLPGKGWIAPRDLKEMLAGDFRTGKILAQGFGPDNQTPDYTYLKGDITAAYSAKVKEVKRSFLFLNLKDAKVPAAMIVFDKVVASNPDFKKFWLLHSIEQPEIKGNQITIKRTKNGDSGMLVNTALLPDAANSNITSIGGKGKDFWVFGTNYTNDPKPGTDEALERGEWRVEITPKKAAAEDYYLNVIQIADNTQQKLHEVKRIDGDKVVGVQLADRIVTFSKTSETVDRPFGFSVVGKGTFKFVMTDLLPGTWQVLKDGKILYPALSAKGDDGALYFEGTEGTYRFLR
modifications: heparinase II
[4]
  degradation product profile, heparin substrate: completely inactive

B3: heparinase I: 42,500 Da enzyme from the periplasm of F. heparinum that degrades heparin-like glycosaminoglycans (protein, listed as Flavobacterium heparinum)
chain: MKKQILYLIVLQQLFLCSAYAQQKKSGNIPYRVNVQADSAKQKAIIDNKWVAVGINKPYALQYDDKLRFNGKPSYRFELKAEDNSLEGYAAGETKGRTELSYSYATTNDFKKFPPSVYQNAQKLKTVYHYGKGICEQGSSRSYTFSVYIPSSFPDNATTIFAQWHGAPSRTLVATPEGEIKTLSIEEFLALYDRMIFKKNIAHDKVEKKDKDGKITYVAGKPNGWKVEQGGYPTLAFGFSKGYFYIKANSDRQWLTDKADRNNANPENSEVMKPYSSEYKTSTIAYKMPFAQFPKDCWITFDVAIDWTKYGKEANTILKPGKLDVMMTYTKNKKPQKAHIVNQQEILIGRNDDDGYYFKFGIYRVGNSTVPVTYNLSGYSETAR
[5]
  salt concentration of elution from heparin-POROS column: around 500 mM
[6]
  activity in 2 mm Ca++ relative to absence of calcium: ~10 ×
  increase in activity upon introduction of millimolar concentrations of calcium: five-fold increase in activity
[7]
  processivity: ~90%
